“And” between values parts separate entries of the source, which are not always exact repeats. Identical values can stand only once. Like-named read-outs stand apart in the source and are kept apart here.
Key:
[1] = molecular target: the molecule itself; experiment: native gel or EMSA
[2] = molecular target: the molecule itself; experiment: native gel or EMSA; remark: listed apart in the source

Protein	stoichiometry N [1]	stoichiometry N [2]
adiponectin, endogenous in human coronary artery VSMC (hCASMC) (natural protein, human (endogenous in hCASMC), UniProt Q15848 19-244, looked up) ETTTQGPGVLLPLPKGACTGWMAGIPGHPGHNGAPGRDGRDGTPGEKGEKGDPGLIGPKGDIGETGVPGAEGPRGFPGIQGRKGEPGEGAYVYRSAFSVGLETYVTIPNMPIRFTKIFYNQQNHYDGSTGKFHCNIPGLYYFAYHITVYMKDVKVSLFKKDKAMLFTYDQYQENNVDQASGSVLLHLEVGDQVWLQVYGEGERNGLYADNDNDSTFTGFLLYHDTN	2 and 3 and 6	–
adiponectin secreted by wild type mouse aortic VSMC (natural protein, UniProt Q60994 18-247, looked up) EDDVTTTEELAPALVPPPKGTCAGWMAGIPGHPGHNGTPGRDGRDGTPGEKGEKGDAGLLGPKGETGDVGMTGAEGPRGFPGTPGRKGEPGEAAYVYRSAFSVGLETRVTVPNVPIRFTKIFYNQQNHYDGSTGKFYCNIPGLYYFSYHITVYMKDVKVSLFKKDKAVLFTYDQYQEKNVDQASGSVLLHLEVGDQVWLQVYGDGDHNGLYADNVNDSTFTGFLLYHDTN	–	3

Source: publication PMC3264700 (Journal of Molecular and Cellular Cardiology, 2011)
